Laboratory results published in patent US20220089743A1 (Chugai, published 2022).
Substitutions are numbered along the chain they refer to.

B1: DQN0344H0976/L0591//DQN0385H1352/L0681-F6 (bispecific antibody)
heavy 1: QVQLVESGGGVVQPGGSLRLSCAASGFTFSSAYWMVWVRQAPGQGLEWMGAVYGGSDTTYYAKWTEGRFTISRDTSKNTLYLQMNSLRAEDTAVYYCAREPLNYYYYGELNLWGQGTLVTVSSASTKGPSVFPLAPSSKSTSGGTAALGCLVKDYFPEPVTVSWNSGALTSGVHTFPAVLKSSGLYSLSSVVTVPSSSLGTQTYICNVNHKPSNTKVDKRVEPKSCDKTHTCPPCPAPELRRGPSVFLFPPKPKDTLMISRTPEVTCVVVDVSHEDPEVKFNWYVDGVEVHNAKTKPREEQYNSTYRVVSVLTVLHQDWLNGKEYKCKVSNKALPAPIEKTISKAKGQPREPQVYTLPPSREEMTKNQVSLTCLVKGFYPSDIAVEWESNGQPENNYKTTPPYLDSDGSFFLYSKLTVDKSRWQEGNVFSCSVLHEALHAHYTREELSLSP
light 1: DIQMTQSPSSLSASVGDRVTITCQATEEIYSGLAWYQQKPGKAPKLLIYYVSTLYEGIPARFSGSGSGTDFTLTISSLEPEDFAVYYCQTYEDVSAVTFGQGTKVEIKRTVAAPSVFIFPPSDEQLKSGTAEVVCLLNNFYPREAKVQWKVDNALQSGNSEESVTEQDSKDSTYSLSSTLTLSKADYEKHKVYACEVTHQGLSSPVTKSFNRGEC
heavy 2: QVQLVESGGGVVQPGRSLRLSCAASGFEFSEWYFMSWVRQAPGKGLEWVASIDTGSGSIDYAEWVEGRFTISRDNSKNTLYLQMNSLRAEDTAVYYCARDIGIDYNFWGPGTLVTVSSASTKGPSVFPLAPSSKSTSGGTAALGCLVEDYFPEPVTVSWNSGALTSGVHTFPAVLESSGLYSLSSVVTVPSSSLGTKTYICNVNHKPSNTKVDKRVEPKSCDKTHTCPPCPAPELRRGPSVFLFPPKPKDTLMISRTPEVTCVVVDVSHEDPEVKFNWYVDGVEVHNAKTKPREEQYNSTYRVVSVLTVLHQDWLNGKEYKCKVSNKALPAPIEKTISKAKGQPREPQVYTLPPSRKEMTKNQVSLTCLVKGFYPSDIAVEWESNGQPENNYKTTPPYLDSDGSFFLYSKLTVDKSRWQQGNVFSCSVLHEALHAHYTRKELSLSP
light 2: DIQMTQSPSSLSASVGDRVTITCQTTQSISSYLNWYQQKPGQPPKLLIYYASTKAEGIPARFSGSGLGTDFTLTISSLEPEDFAVYYCHYGISKVSFGQGTKVEIKRTVAAPSVFIFPPSDEQLKSGTAKVVCLLNNFYPREAKVQWKVDNALQSGNSKESVTEQDSKDSTYSLSSTLTLSKADYEKHKVYACEVTHQGLSSPVTKSFNRGEC
B2: DQN0344H1013/L0620//DQN0385H1270/L0681-F6 (bispecific antibody)
heavy 1: B1 heavy 1 with G16R, L112V
light 1: B1 light 1 with E28N, Y55A, E56Y
heavy 2: B1 heavy 2 with E28T
light 2: B1 light 2
B3: DQN0344H0976/L0591//DQN0385H1527/L0605-F6 (bispecific antibody)
heavy 1: B1 heavy 1
light 1: B1 light 1
heavy 2: B1 heavy 2 with E28T, S30A, E31S
light 2: B1 light 2 with L67S
B4: DQN0344H0976/L0591//DQN0385H1255/L0605-F6.v2 (bispecific antibody, V domains shown)
VH 1: QVQLVESGGGVVQPGGSLRLSCAASGFTFSSAYWMVWVRQAPGQGLEWMGAVYGGSDTTYYAKWTEGRFTISRDTSKNTLYLQMNSLRAEDTAVYYCAREPLNYYYYGELNLWGQGTLVTVSS
VL 1: DIQMTQSPSSLSASVGDRVTITCQATEEIYSGLAWYQQKPGKAPKLLIYYVSTLYEGIPARFSGSGSGTDFTLTISSLEPEDFAVYYCQTYEDVSAVTFGQGTKVEIK
VH 2: QVQLVESGGGVVQPGRSLRLSCAASGFTFSEWYFMSWVRQAPGKGLEWVASIDTGSGSIDYAGWVEERFTISRDNSKNTLYLQMNSLRAEDTAVYYCARDIGIDYNFWGPGTLVTVSS
VL 2: DIQMTQSPSSLSASVGDRVTITCQTTQSISSYLNWYQQKPGQPPKLLIYYASTKAEGIPARFSGSGSGTDFTLTISSLEPEDFAVYYCHYGISKVSFGQGTKVEIK
B5: DQN0344H1013/L0620//DQN0385H1270/L0681-F6.v2 (bispecific antibody, V domains shown)
VH 1: B4 VH 1 with G16R, L112V
VL 1: B4 VL 1 with E28N, Y55A, E56Y
VH 2: B4 VH 2 with G63E, E67G
VL 2: B4 VL 2 with S67L
B6: DQN0344H1013/L0620//DQN0385H1521/L0605-F6.v2 (bispecific antibody, V domains shown)
VH 1: B4 VH 1 with G16R, L112V
VL 1: B4 VL 1 with E28N, Y55A, E56Y
VH 2: B4 VH 2 with S30E, E31S, G63E, E67G
VL 2: B4 VL 2

molecular target: T1, HLA-DQ2.5 on IHW09023 cells loaded with 33 mer gliadin peptide (human; wheat); assay: cell-based or functional assay

Binder | IC50, α1a gliadin TCR, 250 nM 33mer gliadin [ng/mL] | IC50, α1b gliadin TCR, 250 nM 33mer gliadin [ng/mL] | IC50, α2 gliadin TCR, 250 nM 33mer gliadin [ng/mL]
B1 | 0.29 | 1.37 | 0.31
B2 | 0.38 | 1.78 | 0.33
B3 | 0.7 | 1.84 | 0.51

molecular target: T2, HLA-DQ2.5 on IHW09023 cells loaded with omega1/2 gliadin peptide (human; wheat); assay: cell-based or functional assay

Binder | IC50, ω1 gliadin TCR, 25 µM ω1/2 gliadin [ng/mL] | IC50, ω2 gliadin TCR, 250 nM ω1/2 gliadin [ng/mL]
B1 | 1.48 | 0.24
B2 | 2.51 | 0.2
B3 | 3.25 | 0.3

molecular target: T3, HLA-DQ2.5 on IHW09023 cells loaded with BC hordein peptide (human; barley); assay: cell-based or functional assay

Binder | IC50, BC hordein TCR, 250 nM BC hordein [ng/mL]
B1 | 10.8
B2 | 7.54
B3 | 6.54

molecular target: T4, HLA-DQ2.5 on IHW09023 cells loaded with gamma 1 gliadin peptide (human; wheat); assay: cell-based or functional assay

Binder | IC50, γ1 gliadin TCR, 250 nM γ1 gliadin [ng/mL]
B1 | 1.11
B2 | 1.11
B3 | 0.59

molecular target: T5, HLA-DQ2.5 on IHW09023 cells loaded with gamma 2 gliadin peptide (human; wheat); assay: cell-based or functional assay

Binder | IC50, γ2 gliadin TCR, 250 nM γ2 gliadin [ng/mL]
B1 | 284
B2 | 322
B3 | 637

molecular target: T6, HLA-DQ2.5 on IHW09023 cells loaded with gamma 3 gliadin peptide (human; wheat); assay: cell-based or functional assay

Binder | IC50, γ3 gliadin TCR, 100 µM γ3 gliadin [ng/mL]
B1 | 2.99
B2 | 2.63
B3 | 2.09

molecular target: T7, HLA-DQ2.5 on IHW09023 cells loaded with gamma 4a gliadin peptide (human; wheat); assay: cell-based or functional assay

Binder | IC50, γ4a gliadin TCR, 25 µM γ4a gliadin [ng/mL]
B1 | 802
B2 | 1160
B3 | 1210

molecular target: T8, HLA-DQ2.5 on IHW09023 cells loaded with gamma 4d gliadin peptide (human; wheat); assay: cell-based or functional assay

Binder | IC50, γ4d gliadin TCR, 100 µM γ4d gliadin [ng/mL]
B1 | 9.82
B2 | 13.1
B3 | 11.4

molecular target: T1, HLA-DQ2.5 on IHW09023 cells loaded with …; assay: cell-based or functional assay; remark: another data set of the same source

Binder | IC50, α1a gliadin TCR, 250 nM 33mer gliadin [ng/mL] | IC50, α1b gliadin TCR, 250 nM 33mer gliadin [ng/mL] | IC50, α2 gliadin TCR, 250 nM 33mer gliadin [ng/mL]
B4 | 0.46 | 1.33 | 0.29
B5 | 0.63 | 1.42 | 0.53
B6 | 0.6 | 1.81 | 0.33

molecular target: T2, HLA-DQ2.5 on IHW09023 cells loaded with …; assay: cell-based or functional assay; remark: another data set of the same source

Binder | IC50, ω1 gliadin TCR, 25 µM ω1/2 gliadin [ng/mL] | IC50, ω2 gliadin TCR, 250 nM ω1/2 gliadin [ng/mL]
B4 | 1.62 | 0.18
B5 | 3.19 | 0.49
B6 | 1.96 | 0.2

molecular target: T3, HLA-DQ2.5 on IHW09023 cells loaded with …; assay: cell-based or functional assay; remark: another data set of the same source

Binder | IC50, BC hordein TCR, 250 nM BC hordein [ng/mL]
B4 | 9.52
B5 | 25.2
B6 | 11.4

molecular target: T4, HLA-DQ2.5 on IHW09023 cells loaded with …; assay: cell-based or functional assay; remark: another data set of the same source

Binder | IC50, γ1 gliadin TCR, 250 nM γ1 gliadin [ng/mL]
B4 | 1.62
B5 | 5.85
B6 | 1.9

molecular target: T5, HLA-DQ2.5 on IHW09023 cells loaded with …; assay: cell-based or functional assay; remark: another data set of the same source

Binder | IC50, γ2 gliadin TCR, 250 nM γ2 gliadin [ng/mL]
B4 | 252
B5 | 280
B6 | 785

molecular target: T6, HLA-DQ2.5 on IHW09023 cells loaded with …; assay: cell-based or functional assay; remark: another data set of the same source

Binder | IC50, γ3 gliadin TCR, 100 µM γ3 gliadin [ng/mL]
B4 | 1.55
B5 | 4.84
B6 | 1.21

molecular target: T7, HLA-DQ2.5 on IHW09023 cells loaded with …; assay: cell-based or functional assay; remark: another data set of the same source

Binder | IC50, γ4a gliadin TCR, 25 µM γ4a gliadin [ng/mL]
B4 | 636
B5 | 1980
B6 | 1250

molecular target: T8, HLA-DQ2.5 on IHW09023 cells loaded with …; assay: cell-based or functional assay; remark: another data set of the same source

Binder | IC50, γ4d gliadin TCR, 100 µM γ4d gliadin [ng/mL]
B4 | 8.69
B5 | 27.8
B6 | 9.23

molecular target: HLA-DQ2.2 on HBBB2.2 cells loaded with 33 mer gliadin peptide (human; wheat); assay: cell-based or functional assay

Binder | IC50, HLA-DQ2.2, α1a gliadin TCR, 25 µM 33mer gliadin [ng/mL] | IC50, HLA-DQ2.2, α2 gliadin TCR, 1 µM 33mer gliadin [ng/mL]
B4 | 1.72 | 9.48
B5 | 1.62 | 4.6
B6 | 1.16 | 6.51
